Experimental data taken from US20200399382A1 (ARGENX, published 2020).

Key:
[1] = target: T1, mouse IL-4Rα on cells (HT-2 cells, purified mouse B cells) (mouse, UniProt P16382 26-810); assay: cell-based or functional assay
T1 sequence (looked up): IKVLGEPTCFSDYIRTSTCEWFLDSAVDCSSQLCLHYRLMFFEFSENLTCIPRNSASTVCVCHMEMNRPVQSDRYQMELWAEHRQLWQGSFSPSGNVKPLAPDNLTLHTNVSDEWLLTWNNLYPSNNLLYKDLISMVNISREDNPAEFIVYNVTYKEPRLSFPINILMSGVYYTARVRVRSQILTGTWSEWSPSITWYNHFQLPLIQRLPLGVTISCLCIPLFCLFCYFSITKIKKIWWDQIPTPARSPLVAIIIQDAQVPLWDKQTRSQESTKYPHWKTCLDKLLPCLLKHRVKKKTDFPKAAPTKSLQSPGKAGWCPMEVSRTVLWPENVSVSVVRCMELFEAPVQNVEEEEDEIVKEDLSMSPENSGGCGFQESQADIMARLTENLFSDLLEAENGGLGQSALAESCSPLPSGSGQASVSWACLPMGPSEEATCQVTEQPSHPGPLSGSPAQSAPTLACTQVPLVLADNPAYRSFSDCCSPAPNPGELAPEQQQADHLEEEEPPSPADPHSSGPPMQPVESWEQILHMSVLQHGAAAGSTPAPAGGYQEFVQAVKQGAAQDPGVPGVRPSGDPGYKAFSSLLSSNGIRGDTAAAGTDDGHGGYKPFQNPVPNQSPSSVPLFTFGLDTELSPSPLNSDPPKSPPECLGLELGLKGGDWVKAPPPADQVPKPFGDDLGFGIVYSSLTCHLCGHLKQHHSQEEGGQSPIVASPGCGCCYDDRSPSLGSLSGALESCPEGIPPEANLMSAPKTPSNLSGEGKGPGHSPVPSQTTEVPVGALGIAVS

[2] = target: T2, mouse IL-4Rα (SPR target of Example 2) (mouse, UniProt P16382 26-233, limits assumed); assay: SPR, mAb (0-20 µg/mL) over immobilised target; immobilized IL-4Rα target; IL-4Rα mAb in solution
T2 construct: also called immobilized target IL-4Rα
T2 sequence (looked up): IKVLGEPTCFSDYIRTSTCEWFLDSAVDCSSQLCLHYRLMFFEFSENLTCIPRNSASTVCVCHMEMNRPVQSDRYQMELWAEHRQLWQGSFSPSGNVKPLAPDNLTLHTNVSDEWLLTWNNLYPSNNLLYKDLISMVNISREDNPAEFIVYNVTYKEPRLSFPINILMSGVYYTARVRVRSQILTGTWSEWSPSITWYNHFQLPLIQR

mouse IL-5 [3] = target: T3, mouse IL-5 (mouse, UniProt P04401 21-133); assay: SPR sandwich: IL-4Rα-Fc coated, anti-IL-4Rα Ab as 1st injection, IL-5 as 2nd injection
T3 construct: also called mIL-5; recombinant mouse IL-5 (R&D Systems)
T3 sequence (looked up): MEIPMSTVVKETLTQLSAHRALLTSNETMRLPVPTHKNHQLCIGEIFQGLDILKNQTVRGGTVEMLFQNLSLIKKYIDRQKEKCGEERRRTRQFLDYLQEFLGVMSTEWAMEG
Procedure: (§1) The experiment was also performed in reverse order and confirmed the bispecific nature of the molecule as depicted in FIG. 13B.

mouse IL-5 [4] = target: T3, mouse IL-5; assay: cell-based or functional assay
[5] = target: T4, recombinant mouse IL-4Rα-Fc (mouse, UniProt P16382 26-233); assay: SPR, IL-4Rα-Fc coated, antibody as 1st injection
T4 construct: Bought reagent; also called coated IL-4Rα; injected IL-4Rα; not shown: Fc part
T4 sequence (looked up): T2 sequence (looked up)
Procedure: as §1

mouse IL-5 [6] = target: T3, mouse IL-5; assay: SPR, mAb (0-20 µg/mL) over immobilised target; immobilized IL-5 target; IL-5 mAb in solution
mouse IL-5 [7] = target: T3, mouse IL-5; assay: cell-based or functional assay; remark: listed apart in the source
mouse IL-5 [8] = target: T3, mouse IL-5; assay: SPR, IL-5 coated, antibody as 1st injection
Procedure: as §1

[9] = target: T4, recombinant mouse IL-4Rα-Fc; assay: SPR sandwich: IL-5 coated, bispecific as 1st injection, IL-4Rα-Fc as 2nd injection
Procedure: as §1

B1: m4RMP36B7 IL-4Rα monospecific antibody (mouse IgG2a) (antibody, V domains shown)
VH: EVQLVESGGGLVQPGGSLRVSCAASGFTFSSYYMAWVRQAPGKGLEWVSHIHAGGSLTQYADSVKGRFTISRDNAKSTLYLQMNSLKPEDTALYYCVRIYGDATSYDYWGQGTQVSVSS
VL: HSAVTQPPSVSGSPGKTVTISCAGTSSDIGGYNYVSWYQQFPGTAPKLLIYEVNKRASGIPDRFSGSKSGNTASLSISGLQSEDEADYYCASYRSNNNIVFGGGTHLTVL
notes: also called IL-4Rα mAb; IL-4Rα monospecific Ab
EC50, inhibition of mouse IL-4-induced proliferation of HT-2 cells [1]: 0.2 nM
Kd [2]: 0.08 nM
binding result (mouse IL-5 [3]): no binding

B2: m5MP95G7 IL-5 monospecific antibody (mouse IgG2a) (antibody, V domains shown)
VH: ELQVVESGGGLVQPGGSLRLSCAASGFTFSSYGMSWVRQAPGKGLEWVSTISRGGDSTSYADSVKGRFTISKDNAKNTLYLQMNSLEPEDTAVYYCANLGRLGFGRGQGTQVTVSS
VL: SYELTQPPSVSGSPGKTLTISCAGTSSDIGDWNYVSWFQQLPGTAPKLLISEVNKRASGIPDRFSGSKSGNTASLSISGLQSEDEADYYCTSYRSGNNWVFGGGTHLTVL
notes: also called IL-5 mAb; IL-5 monospecific Ab
EC50, inhibition of mouse IL-5-induced proliferation of TF-1 cells (mouse IL-5 [4]): 0.6 nM
binding result [5]: no binding
Kd (mouse IL-5 [6]): 0.002 nM
EC50 (nM), inhibition of mIL-5-induced (0.25 ng/mL) proliferation of TF-1 cells (mouse IL-5 [7]): 1.75 nM

B3: IL-4Rα/IL-5 bispecific antibody (knob-into-hole, mouse IgG2a; 4RMP36B7 arm and 5MP95G7 arm) (bispecific antibody, V domains shown)
VH 1: B1 VH
VL 1: B1 VL
VH 2: B2 VH
VL 2: B2 VL
notes: Murine Fc: the 4RMP36B7 heavy chain carries T366S, L368A and Y407V in CH3, the 5MP95G7 heavy chain carries T366W; also called IL-4Rα/IL-5 bispecific Ab; bispecific Ab
binding result (mouse IL-5 [8]): binds
binding result [9]: binds
